Where a SMILES comes first, the peptide text is derived from it. Bridges are numbered along the chain shown (N, C = ends). Where no end group is shown, it is not given here.
Columns and labels:
B cells [1] = conditions: peripheral blood, lymph nodes, bone marrow; cited from earlier work
[2] = test system: T-independent B cell response; assay: T-independent immune response to Streptococcus pneumoniae IV after B cell depletion; assay type: in vivo, mouse; conditions: mAb day 0, S. pneumoniae IV i.v. day 7, response day 11
Method: On the 3 panels at the right, the spleen cells were stained for the streptococcus polysaccharide-phosphatidyl choline (the TI antigen). CD138 is a marker for plasma cells.
Next, it was determined whether upon B cell depletion, the mice were able to develop T independent immune response. […] At day 7, the mice were injected i.v. with Streptococcus pneumoniae IV to induce a response to the polysaccharide.

lymphoid B cell lines = conditions: binds human complement; cited from earlier work
BAFF/BLyS = target: T1, BAFF/BLyS (Mus musculus, UniProt Q9WU72); conditions: lupus-prone mice; cited from earlier work
T1 construct: host or cells: lupus-prone mice
T1 sequence (Q9WU72 127-309 limits assumed): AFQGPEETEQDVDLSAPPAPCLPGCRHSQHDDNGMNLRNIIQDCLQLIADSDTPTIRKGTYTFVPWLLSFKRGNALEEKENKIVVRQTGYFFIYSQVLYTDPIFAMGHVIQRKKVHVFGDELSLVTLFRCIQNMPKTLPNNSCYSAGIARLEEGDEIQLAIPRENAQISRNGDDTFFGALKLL

B cells [3] = assay: B cell depletion by anti-CD20 mAb, BR3-Fc or combination in hCD20+ mice (FIG. 29, 30); assay type: in vivo, mouse
Method: FACS analysis was performed on of spleen, blood, lymph node B cells (gated on CD21^+CD23^+).
(§1) Mice were treated with control IgG2a, BAFFR/BR3-Fc (100 μg/mouse IP daily for 12 days), anti-hCD20 mAb (100 μg/mouse IP on day 9) or the combination of BAFFR/BR3-Fc and anti-hCD20 mAb (same dosing as single treatment groups). B220^+ splenocytes were isolated on day 13 and stained for CD21 and CD23. N=5 mice/group.
In the Experimental Examples, the BR3-Fc or BAFFR/BR3-Fc used is hBR3-Fc of SEQ ID. NO. 2. […] Each group consisted of 4 mice. Two days following the last injection, the mice were sacrificed and analyzed for hCD20^+ B cells. FACS analysis of spleen, blood, lymph node and Peyer's Patches were analyzed for B cell markers (CD21^+CD23^+).
as §1, with “For the experiment shown in FIG. 30, hCD20 Tg+ mice” for “Mice”, “mice/group. […] The mice were treated with single doses of 0.1 mg control IgG2a, BAFF/BR3-Fc or anti-hCD20 mAb. Splenocytes were analyzed on day 4. N=5 mice/group.” for “mice/group.”

[4] = Expected serum IgG and IgM in responding human patients; assay type: in vivo; conditions: human patients responding to treatment
[5] = Serum IgG and IgM in BR3-Fc treated mice; assay type: in vivo, mouse
BLyS = target: T2, BLyS (Homo sapiens, UniProt Q9Y275); assay: Competitive displacement ELISA (biotinylated miniBR3), peptide-PEG conjugates; assay type: binding
T2 construct: A DNA fragment encoding human BAFF (residues 82-285) was cloned; His-tag (with thrombin cleavage site) (N, cleaved yes); made in house; host or cells: E. coli BL21 (DE3)
T2 sequence (Q9Y275 82-285): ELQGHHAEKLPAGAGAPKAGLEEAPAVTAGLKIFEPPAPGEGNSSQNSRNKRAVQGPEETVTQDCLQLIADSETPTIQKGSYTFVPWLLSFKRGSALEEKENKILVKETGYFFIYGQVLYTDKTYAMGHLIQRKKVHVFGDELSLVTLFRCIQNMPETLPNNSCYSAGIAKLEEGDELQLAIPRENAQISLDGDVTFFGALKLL
Method: The plate was washed with PBS and blocked with 1% skim milk in PBS. […] After washing with PBS/0.05% Tween, 100 μl well of each dilution was transferred and incubated for 1 hour at room temperature. The plate was washed with PBS/0.05% Tween and incubated 15 min with 100 μl/well of 0.1 U/ml Streptavidin-POD (Boehringer Mannheim) in PBS/0.05% Tween.

[6] = target: T3, human BAFF (residues 82-285) (human, UniProt Q9Y275 82-285); assay: phage display selection on BAFF
T3 construct: Coated on plates in the ELISAs; also used biotinylated or free in solution for phage sorting; also called BAFF82-285; BLyS82-285
T3 sequence (Q9Y275 82-285): as above

[7] = target: T3, human BAFF (residues 82-285); assay: competitive displacement ELISA on BAFF-coated plates, biotinylated miniBR3 as tracer

Molecule	binding result [6]	also measured
rituximab [Rituxan]	–	B cell depletion (B cells [1]): depletes B cells from the peripheral blood, lymph nodes, and bone marrow; B cell response from the marginal zone and germinal centers of the spleen to T-independent antigen [2]: did not affect the B cell response; complement-dependent cytotoxicity (CDC) (lymphoid B cell lines): lyses lymphoid B cell lines through complement-dependent cytotoxicity (CDC)
BR3-Fc: hBR3-Fc immunoadhesin of SEQ ID NO. 2, BAFF antagonist	–	autoimmune serologies, renal pathology and mortality (BAFF/BLyS): improved autoimmune serologies, renal pathology and mortality; T2 and follicular B cells in the spleen (B cells [3]; hCD20+ mice): decreases; marginal zone B cells in the spleen (B cells [3]; hCD20+ mice): decreases; mature circulating B cells in the blood and lymph nodes (B cells [3]; hCD20+ mice, 100 micrograms every other day Days 1 through 12): decreases; MZ and T2/FO B cells in spleen (FIG. 30, panel 3) (B cells [3]; treatment for ~2 weeks, 100 μg/mouse IP daily for 12 days, splenocytes day 13): marked decrease; serum IgG and IgM levels [4]: reduction in serum IgG and IgM levels; Serum levels of IgG and IgM [5]: reduced
CC(=O)N[C@@H](CCC(=O)O)C(=O)N[C@H]1CSSC[C@@H](C(=O)NCC(=O)N[C@@H](CC(C)C)C(=O)N[C@@H](CC(C)C)C(=O)N[C@@H](CCCNC(=N)N)C(N)=O)NC(=O)[C@@H]2CCCN2C(=O)[C@H](C(C)C)NC(=O)[C@H](Cc2c[nH]c3ccccc23)NC(=O)[C@H](Cc2c[nH]cn2)NC(=O)[C@H](CCCNC(=N)N)NC(=O)[C@H](C(C)C)NC(=O)[C@H](CC(C)C)NC(=O)[C@H](CC(C)C)NC(=O)[C@H](CC(=O)O)NC(=O)[C@H](Cc2ccccc2)NC1=O [BLyS0048] (Ac-ECFDLLVRHWVPCGLLR-NH2; disulfide 2-13)	–	IC50 (BLyS; 3 ng/ml biotinylated miniBR3, four-parameter fit): 14 nM; IC50 (BLyS; separate experiment): 15 nM
ECFDPLVRVWVPCTVLR [SEQ ID NO 118]	binds	–
ECFDALVHRWVDCAVLG (disulfide 2-13 (inferred)) [SEQ ID NO 127]	binds	–
ECFDRLVNAWVDCRLLA (disulfide 2-13 (inferred)) [SEQ ID NO 124]	binds	–
ECFDILVGRWVPCGLIH (disulfide 2-13 (inferred)) [SEQ ID NO 116]	binds	–
ECFDVLVHRWVPCGLIR [SEQ ID NO 120]	binds	–
Ac-ECFDLLVRAWVPCSVLK-NH2 (disulfide 2-13 (inferred)) [Ac-ECFDLLVRAWVPCSVLK-NH2 (BLyS0051)]	–	binding result [7]: binds
ECFDALVRRWVDCSLLR [SEQ ID NO 126]	binds	–
ECFDLLVRRWVPCHLIT [SEQ ID NO 115]	binds	–
ECFDPLVRDWVRCDILT (disulfide 2-13 (inferred)) [SEQ ID NO 117]	binds	–
Ac-ECFDLLVRHWVACGLLR-NH2 (disulfide 2-13 (inferred)) [Ac-ECFDLLVRHWVACGLLR-NH2 (BLyS0027)]	–	binding result [7]: binds
ECFDRLVNGWVPCAVLH (disulfide 2-13 (inferred)) [SEQ ID NO 123]	binds	–
ECFDLLVNDWVPCGAIT (disulfide 2-13 (inferred)) [SEQ ID NO 125]	binds	–
ECFDHLVRIWVPCTALA (disulfide 2-13 (inferred)) [SEQ ID NO 121]	binds	–
ECFDRLVRAWVPCTALT (disulfide 2-13 (inferred)) [SEQ ID NO 114]	binds	–
ECFDTLVNAWVPCNLLD (disulfide 2-13 (inferred)) [SEQ ID NO 122]	binds	–
ECFDSLVRAWVPCGVLS [SEQ ID NO 119]	binds	–

Source: patent US20050163775A1, “Combination therapy for B cell disorders” (Genentech, Inc., priority 2003, published 2005)
